Data set [1] can be described thus: LCMS, IgG4 BsAb co-expression; HCB homodimer species.
The target of data set [2] is T1, HA-tagged human IgG1 Fc portion with CH3 mutations Y349S, K370Y, T366M, K409V.
T1 chain: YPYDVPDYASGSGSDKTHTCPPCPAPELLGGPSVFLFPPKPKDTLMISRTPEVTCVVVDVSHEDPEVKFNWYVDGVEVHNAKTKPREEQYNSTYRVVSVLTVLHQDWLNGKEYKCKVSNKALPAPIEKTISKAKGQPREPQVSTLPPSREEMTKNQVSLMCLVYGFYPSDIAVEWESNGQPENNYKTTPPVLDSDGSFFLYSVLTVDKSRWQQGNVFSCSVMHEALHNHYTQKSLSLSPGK
In words: UPLC SEC of protein G-purified one-arm antibody co-expressed in HEK293F.

Data set [3] deals with T2, HA-tagged human IgG1 Fc portion with CH3 mutations Y349S, K370Y, T366V, K409V.
T2 chain: T1 chain with M160V
The data set is described as above.

A short description of data set [4]: LCMS, IgG1 BsAb co-expression; HCA homodimer species.
In data set [5] the target is matuzumab HC_20.8_B + matuzumab LC (IgG1). In words: LCMS, IgG1 BsAb co-expression; HCA/HCB heterodimer carrying two LC2.
Data set [6] has the same target. As to the kind of experiment: LCMS, IgG1 BsAb co-expression; HCA/HCB heterodimer carrying two LC1.
For data set [7] the target is unchanged. In words: LCMS, IgG1 BsAb co-expression in HEK293F.
A short description of data set [8]: LCMS, IgG1 BsAb co-expression; HCB homodimer species.

Where a chain is given by its changes, count along the chain named. Names and notes keep the numbering of the source.

B1: matuzumab HC_7.8.60_B + matuzumab LC (IgG4 HC backbone) (protein)
chain 1: QVQLVQSGAEVKKPGASVKVSCKASGYTFTSHWMHWVRYAPGQGLEWIGEFNPSNGRTNYNEKFKSKATMTVDTSTNTAYMELSSLRSEDTAVYYCASRDYDYDGRYFDYWGRGTLVTVSSASTKGPSVFPLAPCSRSTSESTAALGCLVKDYFPEPVTVSWNSGALTSGVHTFPAVLQSSGLYSLSSVVTVPSSSLGTKTYTCNVDHKPSNTKVDKRVESDYGPPCPPCPAPEAAGGPSVFLFPPKPKDTLMISRTPEVTCVVVDVSQEDPEVQFNWYVDGVEVHNAKTKPREEQFQSTYRVVSVLTVLHQDWLNGKEYKCKVSNKGLPSSIEKTISKAKGQPRRPRVYTLPPSQEEMTKNQVSLVCLVKGFYPSDIAVEWESNGQPENNYKTTPPVLDSDGSFFLYSVLTVDKSRWQEGNVFSCSVMHEALHNHYTQKSLSLSLG
chain 2: DIQMTQSPSSLSASVGDRVTITCSASSSVTYMYWYQRKPGDAPKLLIYDTSNLASGVPSRFSGSGSGTDYTFTISSLQPEDIATYYCQQWSSHIFTFGQGTKVEIKRTVAAPSVFIFPPSKEQLKSGTASVVCLLNNFYPREAKVQWKVDNALQSGNSQESVTEQDSKDSTYSLSSTLTLSKADYEKHKVYACEVTHQGLSSPVTKSFNRGEC
Take B1: the % BB Homodimer (incorrect assembly) in data set [1] is 0%.

B2: matuzumab HC_20.8.34_B + matuzumab LC (IgG4 HC backbone) (protein)
chain 1: B1 chain 1 with R346E, R348Q, E357G, E358D, S365Q, V367T, Y408A, V410R
chain 2: B1 chain 2
In the case of B2, the % BB Homodimer (incorrect assembly) in data set [1] (MetMAb × Matuzumab IgG BsAbs (with select CH3 Designs)) was 0%; in data set [1] (Pertuzumab × Matuzumab IgG BsAbs (with select CH3 Designs)), 3.6%.

B3: anti-c-Met 5D5 VH-human IgG1 HC with CH3 mutations E357D, S364Q, Y407A, with 5D5 light chain (protein)
chain 1: EVQLVESGGGLVQPGGSLRLSCAASGYTFTSYWLHWVRQAPGKGLEWVGMIDPSNSDTRFNPNFKDRFTISADTSKNTAYLQMNSLRAEDTAVYYCATYRSYVTPLDYWGQGTLVTVSSASTKGPSVFPLAPSSKSTSGGTAALGCLVKDYFPEPVTVSWNSGALTSGVHTFPAVLQSSGLYSLSSVVTVPSSSLGTQTYICNVNHKPSNTKVDKRVEPKSCDKTHTCPPCPAPELLGGPSVFLFPPKPKDTLMISRTPEVTCVVVDVSHEDPEVKFNWYVDGVEVHNAKTKPREEQYNSTYRVVSVLTVLHQDWLNGKEYKCKVSNKALPAPIEKTISKAKGQPREPQVYTLPPSREDMTKNQVQLTCLVKGFYPSDIAVEWESNGQPENNYKTTPPVLDSDGSFFLASKLTVDKSRWQQGNVFSCSVMHEALHNHYTQKSLSLSPGK
chain 2: DIQMTQSPSSLSASVGDRVTITCKSSQSLLYTSSQKNYLAWYQQKPGKAPKLLIYWASTRESGVPSRFSGSGSGTDFTLTISSLQPEDFATYYCQQYYAYPWTFGQGTKVEIKRTVAAPSVFIFPPSDEQLKSGTASVVCLLNNFYPREAKVQWKVDNALQSGNSQESVTEQDSKDSTYSLSSTLTLSKADYEKHKVYACEVTHQGLSSPVTKSFNRGEC
B3: the values for the % heterodimer (UPLC) in data set [2] and in data set [3] were 93% and 92.5%, respectively.

B4: anti-c-Met 5D5 VH-human IgG1 HC with CH3 mutations E356G, E357D, S364Q, Y407A, with 5D5 light chain (protein)
chain 1: B3 chain 1 with E358G
chain 2: B3 chain 2
In the case of B4, the % heterodimer (UPLC) turned out to be 94% in data set [2] and 92% in data set [3].

B5: anti-c-Met 5D5 VH-human IgG1 HC with CH3 mutations E357D, S364R, Y407A, with 5D5 light chain (protein)
chain 1: B3 chain 1 with Q366R
chain 2: B3 chain 2
On to B5, for which the % heterodimer (UPLC) in data set [2] and in data set [3] was 85% in each case.

B6: MetMAb HC_20.8_A + MetMAb LC (IgG1) (protein)
chain 1: EVQLVESGGGLVQPGGSLRLSCAASGYTFTSYWLHWVRKAPGKGLEWVGMIDPSNSDTRFNPEFKDRFTISADTSKNTAYLQMNSLRAEDTAVYYCATYRSYVTPLDYWGQGTLVTVSSASTKGPSVFPLAPSSKSTSGGTAALGCLVKDYFPEPVTVSWNSGALTSGVATGPAVLQSSGLYSLSSVVTVPSSSLGTQTYICNVNHKPSNTKVDKKVEPKSCDKTHTCPPCPAPELLGGPSVFLFPPKPKDTLMISRTPEVTCVVVDVSHEDPEVKFNWYVDGVEVHNAKTKPREEQYQSTYRVVSVLTVLHQDWLNGKEYKCKVSNKALPAPIEKTISKAKGQPREPQVSTLPPSREEMTKNQVSLVCLVYGFYPSDIAVEWESNGQPENNYKTTPPVLDSDGSFFLYSVLTVDKSRWQQGNVFSCSVMHEALHNHYTQKSLSLSPGK
chain 2: RIQMTQSPSSLSASVGDRVTITCKSSQSLLYTSSQKNYLAWYQDKPGKAPKLLIYWASTRESGVPSRFSGSGSGTDFTLTISSLQPEDFATYYCQQYYAYPWTFGQGTKVEIKGQPKAAPSVTLFPPSSEELQANKATLVCYISDFYPGAVTVAWKADSSPVKAGVETTTPSKQSNNKYAAWSYLSLTPEQWKSHRSYSCQVTHEGSTVEKTVAPTEC
In turn, B6 yielded a % AA Homodimer (incorrect assembly) in data set [4] of 0%. The % AB (2x LC2) (incorrect assembly) in data set [5] amounted to 24.4%. The % AB (2x LC1) (incorrect assembly) in data set [6] turned out to be 0%. In data set [7], the % AB (LC1/LC2) (correct IgG BsAb assembly) was found to be 75.6%.

B7: BHA10 HC_7.8.60_B + BHA10 LC (IgG4 HC backbone) (protein)
chain 1: QVQLVQSGAEVKKPGSSVKVSCKASGYTFTTYYLHWVRYAPGQGLEWMGWIYPGNVHAQYNEKFKGRVTITADKSTSTAYMELSSLRSEDTAVYYCARSWEGFPYWGRGTTVTVSSASTKGPSVFPLAPCSRSTSESTAALGCLVKDYFPEPVTVSWNSGALTSGVHTFPAVLQSSGLYSLSSVVTVPSSSLGTKTYTCNVDHKPSNTKVDKRVESDYGPPCPPCPAPEAAGGPSVFLFPPKPKDTLMISRTPEVTCVVVDVSQEDPEVQFNWYVDGVEVHNAKTKPREEQFQSTYRVVSVLTVLHQDWLNGKEYKCKVSNKGLPSSIEKTISKAKGQPRRPRVYTLPPSQEEMTKNQVSLVCLVKGFYPSDIAVEWESNGQPENNYKTTPPVLDSDGSFFLYSVLTVDKSRWQEGNVFSCSVMHEALHNHYTQKSLSLSLG
chain 2: DIQMTQSPSSLSASVGDRVTITCKASQNVGINVAWYQRKPGDAPKSLISSASYRYSGVPSRFSGSGSGTDFTLTISSLQPEDFATYFCQQYDTYPFTFGQGTKVEIKRTVAAPSVFIFPPSKEQLKSGTASVVCLLNNFYPREAKVQWKVDNALQSGNSQESVTEQDSKDSTYSLSSTLTLSKADYEKHKVYACEVTHQGLSSPVTKSFNRGEC
In data set [1], B7 returned a % BB Homodimer (incorrect assembly) of 4.2%.

B8: BHA10 HC_20.8.37_B + BHA10 LC (IgG1) (protein)
chain 1: QVQLVQSGAEVKKPGSSVKVSCKASGYTFTTYYLHWVRYAPGQGLEWMGWIYPGNVHAQYNEKFKGRVTITADKSTSTAYMELSSLRSEDTAVYYCARSWEGFPYWGRGTTVTVSSASTKGPSVFPLAPCSKSTSGGTAALGCLVKDYFPEPVTVSWNSGALTSGVHTFPAVLQSSGLYSLSSVVTVPSSSLGTQTYICNVNHKPSNTKVDKKVEPDSGDKTHTCPPCPAPELLGGPSVFLFPPKPKDTLMISRTPEVTCVVVDVSHEDPEVKFNWYVDGVEVHNAKTKPREEQYNSTYRVVSVLTVLHQDWLNGKEYKCKVSNKALPAPIEKTISKAKGQPREPQVYTLPPSREDMTKNQVRLTCLVKGFYPSDIAVEWESNGQPENNYKTTPPVLDSDGSFFLASKLTVDKSRWQQGNVFSCSVMHEALHNHYTQKSLSLSPGK
chain 2: B7 chain 2
For B8, in data set [8], the % BB Homodimer (incorrect assembly) was 0%.

B9: BHA10 HC_20.8.34_B + BHA10 LC (IgG4 HC backbone) (protein)
chain 1: B7 chain 1 with R341E, R343Q, E352G, E353D, S360Q, V362T, Y403A, V405R
chain 2: B7 chain 2
In data set [1], B9 came in with a % BB Homodimer (incorrect assembly) of 0%.

The record behind these values is patent US20180009908.
